Ends that are not written are not given here.
T1: corticotropin releasing factor 2 receptor
T1 sequence (Q13324 whole entry, species assumed, looked up): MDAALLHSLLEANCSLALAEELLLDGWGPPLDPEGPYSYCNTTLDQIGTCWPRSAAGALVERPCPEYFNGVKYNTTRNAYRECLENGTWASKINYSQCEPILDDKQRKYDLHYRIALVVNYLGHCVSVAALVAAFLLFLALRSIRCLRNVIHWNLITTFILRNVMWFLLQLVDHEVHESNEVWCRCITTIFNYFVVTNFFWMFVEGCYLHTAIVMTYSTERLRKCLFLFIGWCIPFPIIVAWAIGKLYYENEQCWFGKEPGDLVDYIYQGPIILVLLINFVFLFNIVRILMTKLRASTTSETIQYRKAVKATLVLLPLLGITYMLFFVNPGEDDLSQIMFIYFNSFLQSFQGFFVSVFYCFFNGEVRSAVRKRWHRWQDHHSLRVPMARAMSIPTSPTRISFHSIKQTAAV


Legend:
[1] = biological target: T1, corticotropin releasing factor 2 …; test: cell-based or functional assay
[2] = biological target: corticotropin releasing factor 1 receptor; test: cell-based or functional assay

Row | Binder | CRF2R EC50 [1] | CRF2R Emax % [1] | CRF1R EC50 [2] | CRF1R Emax % [2]
1 | ZGPPISIDLPLQLLRKVIEIEKQEKEKQQATTNARILARV (C-terminal amide) [SEQ ID NO 320] | 19.1 nM | 100% | 718 nM | 68.8%
2 | ZGPPISIDLPFQLLRKTIEIEKQEKEKQQATTNARLLDRV (C-terminal amide) [SEQ ID NO 321] | 19.6 nM | 86.8% | 1000 nM | 33.8%
3 | DNPSLSIDLPLLLLRTLLELEKTQSQRERAEQNAQIFAQV-NH2 [SEQ ID NO 327] | 28.4 nM | 100% | 1000 nM | 36.5%
4 | DNPSLSIDLPLLLLRTLLELEKTQSQRERAEQNAHIFAHV-NH2 [SEQ ID NO 328] | 11.7 nM | 95.7% | 1000 nM | 30.7%
5 | ZGPPISIDLPYHLLRKMIEIEKQEKEKQQAANNALLLAT (C-terminal amide) [SEQ ID NO 315] | 9.35 nM | 81.7% | 454 nM | 100%
6 | IVLSLDVPIGLLQKMIEIEKQEKEKQQATTNARILARV-NH2 [SEQ ID NO 322] | 23.1 nM | 96.5% | 1000 nM | 10.7%
7 | IVLSLDVPIGLLQILLEQEKARAAREQATTNARILARV-NH2 [SEQ ID NO 325] | 11.7 nM | 100% | 100 nM | 5%
8 | DNPSLSIDLPLLLLRTLLELEKTQSQRERAEQNANIFANV-NH2 [SEQ ID NO 326] | 33.7 nM | 100% | 1000 nM | 30.1%
9 | DNPSLSIDLPLLLLRTLLELEKTQSQRERAEQNAEIFAEV-NH2 [SEQ ID NO 323] | 19.6 nM | 100% | 1000 nM | 36.9%
10 | DNPSLSIDLPLLLLRTLLELEKTQSQRERAEQNAQIFAHV-NH2 [SEQ ID NO 324] | 17.2 nM | 100% | 1000 nM | 46.6%
11 | ZGPPISIDLPVALLRKMIEIEKQEKEKQQAANNRLLLDTI (not fully specified; C-terminal amide) [SEQ ID NO 305] | 35.5 nM | 95.2% | 1000 nM | 59.5%
12 | ZGPPISIDLPLALLRKMIEIEKQEKEKQQAANNRLLLDTI (not fully specified; C-terminal amide) [SEQ ID NO 308] | 3.3 nM | 72.8% | 63.5 nM | 100%
13 | ZGPPISIDLPFFLLRKVIEIEKQEKEKQQAANNALLLATI (C-terminal amide) [SEQ ID NO 317] | 9.3 nM | 88.3% | 188 nM | 100%
14 | ZGPPISIDLPYWLLRKVIEIEKQEKEKQQAANNALLLDTI (C-terminal amide) [SEQ ID NO 311] | 11.7 nM | 100% | 1000 nM | 29.7%
15 | ZGPPISIDLPFFLLRKVIEIEKQEKEKQQAANNALLLDTI (C-terminal amide) [SEQ ID NO 316] | 10.2 nM | 94.5% | 222 nM | 92.3%
16 | ZGPPISIDLPFALLRKMIEIEKQEKEKQQAANNRLLLDTI (not fully specified; C-terminal amide) [SEQ ID NO 307] | 5.82 nM | 96.5% | 78.4 nM | 92.7%
17 | ZGPPISIDLPFFLLRKMIEIEKQEKEKQQAANNALLLATI (C-terminal amide) [SEQ ID NO 319] | 8.5 nM | 95% | 106 nM | 88.3%
18 | ZGPPISIDLPYALLRKMIEIEKQEKEKQQAANNRLLLDTI (not fully specified; C-terminal amide) [SEQ ID NO 309] | 5.55 nM | 99.9% | 108 nM | 96.3%
19 | ZGPPISIDLPIALLRKMIEIEKQEKEKQQAANNRLLLDTI (not fully specified; C-terminal amide) [SEQ ID NO 306] | 27.6 nM | 100% | 608 nM | 97.7%
20 | ZGPPISIDLPYHLLRKVIEIEKQEKEKQQAANNALLLATI (C-terminal amide) [SEQ ID NO 313] | 11.1 nM | 95% | 704 nM | 87.1%
21 | ZGPPISIDLPYWLLRKMIEIEKQEKEKQQAANNALLLDTI (C-terminal amide) [SEQ ID NO 310] | 8.7 nM | 87.5% | 1000 nM | 45.3%
22 | ZGPPISIDLPYHLLRKMIEIEKQEKEKQQAANNALLLDTI (C-terminal amide) [SEQ ID NO 314] | 10.3 nM | 99.8% | 978 nM | 82.4%
23 | ZGPPISIDLPFFLLRKMIEIEKQEKEKQQAANNALLLDTI (C-terminal amide) [SEQ ID NO 318] | 9.95 nM | 95.4% | 134 nM | 92.8%
24 | ZGPPISIDLPYHLLRKVIEIEKQEKEKQQAANNALLLDTI (C-terminal amide) [SEQ ID NO 312] | 14.1 nM | 95% | 870 nM | 62%

Continued, values first:

Row | CRF2R EC50 [1] | CRF2R Emax % [1] | CRF1R EC50 [2] | CRF1R Emax % [2] | Binder
25 | 5.15 nM | 98.3% | 1000 nM | 98.4% | DNPSLSIDLPLFLLRTLLELARTQSQRERAEQNARIFARV-NH2 [SEQ ID NO 329]
26 | 9.95 nM | 100% | 1000 nM | 61.3% | PSLSIDLPLILLRTLLELEKTQSQRERAEQNARIFARV-NH2 [SEQ ID NO 332]
27 | 23.9 nM | 86.7% | 1000 nM | 36.5% | DNPSLSIDLPLILLRTLLELEKTQSQRERAEQNARIFDRV-NH2 [SEQ ID NO 337]
28 | 19.3 nM | 77.5% | 1000 nM | 41.1% | DNPSLSIDLPLLLLRTLLELEKTQSQRERAEQNARIFDRV-NH2 [SEQ ID NO 338]
29 | 9.85 nM | 100% | 1000 nM | 78.7% | PSLSIDLPLFLLRTLLELEKTQSQRERAEQNARIFARV-NH2 [SEQ ID NO 331]
30 | 7.99 nM | 100% | 740 nM | 96% | DNPSLSIDLPLLLLRTLLELARTQSQRERAEQNARIFARV-NH2 [SEQ ID NO 340]
31 | 100 nM | 47.9% | 1000 nM | 13.2% | DNPSLSIDLPQYLLRTLLELARTQSQRERAEQNAIIFASV-NH2 [SEQ ID NO 339]
32 | 13.2 nM | 93.5% | 1000 nM | 82.6% | DNPSLSIDLPLFLLRTLLELEKTQSQRERAEQNARIFARV-NH2 [SEQ ID NO 334]
33 | 9.85 nM | 96.9% | 1000 nM | 43.8% | PSLSIDLPLLLLRTLLELEKTQSQRERAEQNARIFARV-NH2 [SEQ ID NO 333]
34 | 28.1 nM | 91% | 1000 nM | 49.5% | DNPSLSIDLPLILLRTLLELEKTQSQRERAEQNARIFARV-NH2 [SEQ ID NO 335]
35 | 17.8 nM | 100% | 1000 nM | 59.9% | DNPSLSIDLPLFLLRTLLELEKTQSQRERAEQNARIFDRV-NH2 [SEQ ID NO 336]
36 | 6 nM | 93.7% | 1000 nM | 86.8% | DNPSLSIDLPLILLRTLLELARTQSQRERAEQNARIFARV-NH2 [SEQ ID NO 330]

Reference: patent US20030148956A1 (PROCTER AND GAMBLE, published 2003)
